B1: Azoarcus group I ribozyme (parent)
chain: GUGCCUUGCGCCGGGAAACCACGCAAGGGAUGGUGUCAAAUUCGGCGAAACCUAAGCGCCCGCCCGGGCGUAUGGCAACGCCGAGCCAAGCUUCGGCGCCUGCGCCGAUGAAGGUGUAGAGACUAGACGGCACCCACCUAAGGCAAACGCUAUGGUGAAGGCAUAGUCCAGGGAGUGGCGAAAGUCACACAAACCGG

Variants of: B1
Assay: reverse-splicing fitness (ratio to wild type); higher = more active; in vitro selection; Mg2+ level not given
Procedure, shortened: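 An in vitro group I ribozyme library with randomized positions was T7-transcribed and gel-purified. In triplicate, 10 pmol RNA in EPPS pH 7.5 was reacted with 50 pmoles of a 30-nt RNA substrate for 1 h at 37 °C across several added MgCl2 levels (1–48 mM), then stopped with EDTA. Products were reverse transcribed from a substrate-complementary primer, PCR-amplified and sequenced (HiSeq 4000). Fitness is a variant's read proportion after selection over that before, normalised to wild type.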

Variant	reverse-splicing fitness
GUGCCUUGCGCCGGGAAACCACGCAAGGGAUGGUGUCAAAUUCGGCGAAACCUAAGCGCCCGCCCGGGCGUAUGGCAACGCGGAGCCAAGCUUCGGCGCCUGCGCCGAUGUAGGUGUAGUGACUAGACGGCACCCACCUAAGGCGAACGUUAUGGUGAAGGCAUAGUCGAGGGAGUGGCGAAAGUCACACAAACCGG	0.00641
GUGCCUUGCGCCGGGAAACCACGCAAGGGAUGGUGUCAAAUUCGGCGAAACCUAAGCGCCCGCCCGGGCGUAUGGCAACGCGGAGCCAAGCUUCGGCGCCUGCGCCGAUGUAGGUGUAGUGACUAGACGGCACCCACCUAAGGCGAACGUUAUGGUGAAGGCAUAGUCAAGGGAGUGGCGAAAGUCACACAAACCGG	0.00699
GUGCCUUGCGCCGGGAAACCACGCAAGGGAUGGUGUCAAAUUCGGCGAAACCUAAGCGCCCGCCCGGGCGUAUGGCAACGCGGAGCCAAGCUUCGGCGCCUGCGCCGAUGUAGGUGUAGUGACUAGACGGCACCCACCUAAGGCGAACGUUAUGGUGAAGGCAUAGUCUAGGGAGUGGCGAAAGUCACACAAACCGG	0.00655
GUGCCUUGCGCCGGGAAACCACGCAAGGGAUGGUGUCAAAUUCGGCGAAACCUAAGCGCCCGCCCGGGCGUAUGGCAACGCGGAGCCAAGCUUCGGCGCCUGCGCCGAUGUAGGUGUAGUGACUAGACGGCACCCACCUAAGGCGAACGUUAUGGUGAAGGCAUAGUCUAGGGAGAGGCGAAAGUCACACAAACCGG	0.00518
GUGCCUUGCGCCGGGAAACCACGCAAGGGAUGGUGUCAAAUUCGGCGAAACCUAAGCGCCCGCCCGGGCGUAUGGCAACGCGGAGCCAAGCUUCGGCGCCUGCGCCGAUGUAGGUGUAGUGACUAGACGGCACCCACCUAAGGCGAACGUUAUGGUGAAGGCAUAGUCUAGGGAGGGGCGAAAGUCACACAAACCGG	0.00302
GUGCCUUGCGCCGGGAAACCACGCAAGGGAUGGUGUCAAAUUCGGCGAAACCUAAGCGCCCGCCCGGGCGUAUGGCAACGCGGAGCCAAGCUUCGGCGCCUGCGCCGAUGUAGGUGUAGUGACUAGACGGCACCCACCUAAGGCGAACGUUAUGGUGAAGGCAUAGUCUAGGGAGCGGCGAAAGUCACACAAACCGG	0.00501
GUGCCUUGCGCCGGGAAACCACGCAAGGGAUGGUGUCAAAUUCGGCGAAACCUAAGCGCCCGCCCGGGCGUAUGGCAACGCGGAGCCAAGCUUCGGCGCCUGCGCCGAUGUAGGUGUAGUGACUAGACGGCACCCACCUAAGGCGAACGCUAUGGUGAAGGCAUAGUCAAGGGAGGGGCGAAAGUCACACAAACCGG	0.00196
GUGCCUUGCGCCGGGAAACCACGCAAGGGAUGGUGUCAAAUUCGGCGAAACCUAAGCGCCCGCCCGGGCGUAUGGCAACGCGGAGCCAAGCUUCGGCGCCUGCGCCGAUGUAGGUGUAGUGACUAGACGGCACCCACCUAAGGCGAACGCUAUGGUGAAGGCAUAGUCAAGGGAGAGGCGAAAGUCACACAAACCGG	0.00574
GUGCCUUGCGCCGGGAAACCACGCAAGGGAUGGUGUCAAAUUCGGCGAAACCUAAGCGCCCGCCCGGGCGUAUGGCAACGCGGAGCCAAGCUUCGGCGCCUGCGCCGAUGUAGGUGUAGUGACUAGACGGCACCCACCUAAGGCGAACGCUAUGGUGAAGGCAUAGUCAAGGGAGCGGCGAAAGUCACACAAACCGG	0.00529
GUGCCUUGCGCCGGGAAACCACGCAAGGGAUGGUGUCAAAUUCGGCGAAACCUAAGCGCCCGCCCGGGCGUAUGGCAACGCGGAGCCAAGCUUCGGCGCCUGCGCCGAUGUAGGUGUAGUGACUAGACGGCACCCACCUAAGGCGAACGCUAUGGUGAAGGCAUAGUCAAGGGAGUGGCGAAAGUCACACAAACCGG	0.00459
GUGCCUUGCGCCGGGAAACCACGCAAGGGAUGGUGUCAAAUUCGGCGAAACCUAAGCGCCCGCCCGGGCGUAUGGCAACGCGGAGCCAAGCUUCGGCGCCUGCGCCGAUGUAGGUGUAGUGACUAGACGGCACCCACCUAAGGCGAACGCUAUGGUGAAGGCAUAGUCUAGGGAGUGGCGAAAGUCACACAAACCGG	0.00483
GUGCCUUGCGCCGGGAAACCACGCAAGGGAUGGUGUCAAAUUCGGCGAAACCUAAGCGCCCGCCCGGGCGUAUGGCAACGCGGAGCCAAGCUUCGGCGCCUGCGCCGAUGUAGGUGUAGUGACUAGACGGCACCCACCUAAGGCGAACGCUAUGGUGAAGGCAUAGUCGAGGGAGUGGCGAAAGUCACACAAACCGG	0.00479
GUGCCUUGCGCCGGGAAACCACGCAAGGGAUGGUGUCAAAUUCGGCGAAACCUAAGCGCCCGCCCGGGCGUAUGGCAACGCGGAGCCAAGCUUCGGCGCCUGCGCCGAUGUAGGUGUAGUGACUAGACGGCACCCACCUAAGGCGAACGCUAUGGUGAAGGCAUAGUCGAGGGAGGGGCGAAAGUCACACAAACCGG	0.00172
GUGCCUUGCGCCGGGAAACCACGCAAGGGAUGGUGUCAAAUUCGGCGAAACCUAAGCGCCCGCCCGGGCGUAUGGCAACGCGGAGCCAAGCUUCGGCGCCUGCGCCGAUGUAGGUGUAGUGACUAGACGGCACCCACCUAAGGCGAACGCUAUGGUGAAGGCAUAGUCGAGGGAGAGGCGAAAGUCACACAAACCGG	0.00533
GUGCCUUGCGCCGGGAAACCACGCAAGGGAUGGUGUCAAAUUCGGCGAAACCUAAGCGCCCGCCCGGGCGUAUGGCAACGCGGAGCCAAGCUUCGGCGCCUGCGCCGAUGUAGGUGUAGUGACUAGACGGCACCCACCUAAGGCGAACGCUAUGGUGAAGGCAUAGUCGAGGGAGCGGCGAAAGUCACACAAACCGG	0.00515

From the RNAGym collection of RNA variant scans (doi:10.1093/molbev/msab373)
